Experimental findings from paper PMC5682392, “Site-Directed Mutagenesis Study Revealed Three Important Residues in Hc-DAF-22, a Key Enzyme Regulating Diapause of Haemonchus contortus” (Frontiers in Microbiology, 2017) are described below.

For orientation: Km means the substrate concentration at which the rate is half of its maximum. Broadly, the Vmax is the top rate of the reaction or transport when substrate is in excess.

For data set [1], the system named is CC(=O)CC(=O)SCCNC(=O)CCNC(=O)[C@H](O)C(C)(C)COP(=O)(O)OP(=O)(O)OC[C@H]1O[C@@H](n2cnc3c(N)ncnc32)[C@H](O)[C@@H]1OP(=O)(O)O. The data set is described as follows: purified protein. It counts as biochemical, Haemonchus contortus. As to conditions: 60 μM CoA co-substrate, 20 mM MgCl2, 50 mM Tris-Cl pH 8.1 (pH 8.0 also stated), 37°C, varied substrate not given, taken as AcAc-CoA.

Substrate in the data set “purified protein”: CC(=O)CC(=O)SCCNC(=O)CCNC(=O)[C@H](O)C(C)(C)COP(=O)(O)OP(=O)(O)OC[C@H]1O[C@@H](n2cnc3c(N)ncnc32)[C@H](O)[C@@H]1OP(=O)(O)O
The data set is described as follows: purified protein. It counts as biochemical, Haemonchus contortus. To be noted: 60 μM CoA co-substrate, 20 mM MgCl2, 50 mM Tris-Cl pH 8.1 (pH 8.0 also stated), 37°C, varied substrate not given, taken as AcAc-CoA, text prints 33.765.

For Hc-DAF-22 (Haemonchus contortus; C84S), in data set [1], the Km was 51.25 µM and the maximum rate (Vmax) was 0.693 µM/min.

Regarding Hc-DAF-22 (Haemonchus contortus; H349A), in data set [1], the Km stood at 78.50 µM and the Vmax turned out to be 0.765 µM/min.

Hc-DAF-22 (Haemonchus contortus; H299A): in data set [1], the Michaelis-Menten constant (Km) is 79.85 µM and the Vmax came out at 1.39 µM/min.

B1: Hc-DAF-22 (Haemonchus contortus) (protein)
chain: MGKSKVYVIGVGMTKFCKPGSRDWDYPDMVKEAVNMALDDCSLKYTDIQQATVGYLFGGTCCGQRALYELGFTGIPIFNVNNACASGSSGLYLCKQIIESGNSDVVLACGFEKMATGSLDTQAGNSDGRALSVDNHIQVMSDTYGLFPAPITAQMFANAGKEHMEKYGTKREHFAKIAWKNHLHSVHNPNSQFTKEFSLDQVMNARKIYDFMGLLECSPTSDGSAAAVLCSERFLEQNPRLKPQAVEIVGLELGTDQPSVFKENSNIKMIGFDMIKKISSDLYRNTGLCPNDVQVIELHDCFAPNELITYEALGLCDVGKGGTIVDRGDNTYGGKWVINPSGGSISKGHPIGATGVAQVVELSNQLRGKCGKRQVPNCKIAMQHNIGIGGAGVVGLYRLAYPSSTCPPTTKSSPTMSAFKSDVIFEEIKQRINEEKELVKKIATSFRIIITGEDGTVKKWTIDAKSDTPYVGDDDRKVEVEITIKDSDFMNIAAGKLKADQAFMQGKMKLKGNIAKSMKLKTLLDPKMLKAKI
As for B1, in the data set “purified protein”, the Michaelis constant (Km) was found to be 33.76 µM and the Vmax is 1.78 µM/min.
